pKd: −log10 of the molar value.
What was measured:
CD147 on cells (human) = CD147 on cells (human) (UniProt P35613); test: two-colour FACS of activated lymphocytes, CBL against CD25
[1] = target: Hu-CD147IgG2 fusion protein (human); test: BIAcore, surface Hu rCD147-IgG 791 RU

Chain of CD147 on cells (human) (P35613 other isoform, or with tags, fused parts or gaps limits assumed): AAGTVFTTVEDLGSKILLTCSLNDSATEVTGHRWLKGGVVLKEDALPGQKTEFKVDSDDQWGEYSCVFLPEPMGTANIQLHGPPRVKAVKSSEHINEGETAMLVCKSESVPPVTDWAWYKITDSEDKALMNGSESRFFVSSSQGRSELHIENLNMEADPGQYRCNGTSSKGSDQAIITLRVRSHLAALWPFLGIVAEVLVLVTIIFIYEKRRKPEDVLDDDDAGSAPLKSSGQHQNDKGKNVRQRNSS
Chain of ABX-CBL antibody (HC): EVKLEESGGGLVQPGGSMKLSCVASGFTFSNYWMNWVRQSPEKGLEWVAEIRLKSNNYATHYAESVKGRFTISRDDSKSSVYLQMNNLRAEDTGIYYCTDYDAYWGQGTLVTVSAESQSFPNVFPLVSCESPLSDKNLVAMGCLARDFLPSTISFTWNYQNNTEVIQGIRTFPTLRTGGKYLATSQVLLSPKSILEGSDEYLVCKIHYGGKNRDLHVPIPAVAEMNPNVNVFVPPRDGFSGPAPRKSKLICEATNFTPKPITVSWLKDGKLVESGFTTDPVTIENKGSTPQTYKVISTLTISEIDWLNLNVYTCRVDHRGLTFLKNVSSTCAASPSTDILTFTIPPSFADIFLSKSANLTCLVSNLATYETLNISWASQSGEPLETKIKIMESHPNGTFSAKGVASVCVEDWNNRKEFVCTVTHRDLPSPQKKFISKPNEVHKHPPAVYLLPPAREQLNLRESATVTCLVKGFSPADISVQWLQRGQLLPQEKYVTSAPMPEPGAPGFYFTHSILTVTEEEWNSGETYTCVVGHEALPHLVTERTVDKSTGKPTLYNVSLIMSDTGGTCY
Chain of ABX-CBL antibody (LC): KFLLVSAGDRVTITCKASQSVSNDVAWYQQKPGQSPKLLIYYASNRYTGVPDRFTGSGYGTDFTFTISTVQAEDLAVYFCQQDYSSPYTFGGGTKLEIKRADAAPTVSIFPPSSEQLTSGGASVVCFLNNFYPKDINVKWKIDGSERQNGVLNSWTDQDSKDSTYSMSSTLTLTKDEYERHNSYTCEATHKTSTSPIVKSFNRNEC

ABX-CBL antibody
% of cells in quadrant CBL negative / CD25 negative (CD147 on cells (human)): 29.6%
% of cells in quadrant CBL negative / CD25 positive (CD147 on cells (human)): 1.6%
% of cells in quadrant CBL positive / CD25 negative (CD147 on cells (human)): 18.9%
% of cells in quadrant CBL positive / CD25 positive (CD147 on cells (human)): 50%
Ka [1]: 1.39e+09 M⁻¹
pKd [1]: 9.29
koff [1]: 0.000376 s⁻¹
kon [1]: 725000 M⁻¹ s⁻¹
